The values that follow come from paper PMC10433963, “Interactome Analysis Identifies MSMEI_3879 as a Substrate of Mycolicibacterium smegmatis ClpC1” (Microbiology Spectrum, 2023).

B1: Magnesium chelatase (recombinant) (natural protein, M. smegmatis, UniProt A0R3L1 1-461, looked up)
chain: MVSQPKDLPRTVGELRASGHRERGVKAEIRENLLAALAERRDVWPGILGFEDTVIPQLERALIAGHDVVLLGERGQGKTRLLRALTGLLDEWTPVIAGSELGEHPYSPITPESIRRAADSGDDLPVEWRHRSERYTEKLATPDTSVADLVGDIDPIKVAEGRSLGDPETIAYGLIPRAHRGIVAVNELPDLAERIQVAMLNVMEERDIQVRGYTLRLPLDVLVVASANPEDYTNRGRIITPLKDRFGAEIRTHYPLELEAEVGVIRQEAELAAEVPEYLLAVLARFARNLRESNSIDQRSGVSARFAIAAAETVAASARHRAAILGEDDPVARVVDLGTVIDVLRGKLEFETGEEGREQAVLEHLLRRATADTAQRLLGGIDVGPLVAAIEEGSPVTTGERVSAKDVVAALPDLPAIDAIAHRLNAVSVGQRAAAIELALEALYLAKRIDKVSGEGETVYG
notes: H7-SUMO tags were removed with Ulp1 or left intact for microscale thermophoresis; also called Mg chelatase
B2: XRE (recombinant) (natural protein, M. smegmatis, UniProt A0QQY3 1-142, looked up)
chain: MAQDENLAAVVSNAAQDIGSFIRAQREAAQVSVRQLAEKAGVSNPYLSQIERGLRKPSADVLNQIAKALRVSAEVLYVRAGILEPSEPSEVRDAIVNDVSITERQKQVLLDIYTSFRQQNEAAGEPEGAAVIPSPDEEPATD
notes: H7-SUMO tags were removed with Ulp1 or left intact for microscale thermophoresis; also called Transcriptional regulator, XRE family protein
B3: DnaJ1 (recombinant) (natural protein, M. smegmatis, UniProt A0QQD0 1-390, looked up)
chain: MAQREWVEKDFYKELGVSSDASADEIKKAYRKLAAELHPDRNSDPGAAERFKAVSEANSVLSDPAKRKEYDETRRLFAGGFGRRFNQGGGGFGGGFGSDGVEFNLGDLFDAAGQTGGANIGDLFGGLFGRGPQQRPSRPRRGNDLETETELSFLEATKGVAMPLRLTSPAPCTNCHGSGARPGTSPKVCPSCNGSGVISRNQGAFGFSEPCTECRGSGSIIEHPCQECRGTGVTTRTRTINVRIPPGVEDGQRIRLAGQGEAGLRGAPSGDLYVTVHVRPDKVFGRDGDDLTVTVPVSFHELALGTTLSVPTLDGKVGVRVPKGTSDGRILRVRGRGVPKRSGGHGDLLVTVKVAVPPNLEGEAAEALEAYAKAERASGFDPRAGWAGNV
notes: H7-SUMO tags were removed with Ulp1 or left intact for microscale thermophoresis; also called Chaperone protein DnaJ1

For the assay, the target named is T1, ^H7-SUMOClpC1^FLAG (recombinant ClpC1) (M. smegmatis, UniProt A0R574 1-848).
T1 construct: ClpC1 unfoldase, M. smegmatis; used at 0.1 uM (hexamer) in microscale thermophoresis; In the degradation assays (functional rows) ClpC1 stood with ClpP1P2 and its H7-SUMO tag may have been removed; not shown: H7-SUMO, N-terminal, kept; FLAG, C-terminal, kept
T1 sequence (A0R574 whole entry): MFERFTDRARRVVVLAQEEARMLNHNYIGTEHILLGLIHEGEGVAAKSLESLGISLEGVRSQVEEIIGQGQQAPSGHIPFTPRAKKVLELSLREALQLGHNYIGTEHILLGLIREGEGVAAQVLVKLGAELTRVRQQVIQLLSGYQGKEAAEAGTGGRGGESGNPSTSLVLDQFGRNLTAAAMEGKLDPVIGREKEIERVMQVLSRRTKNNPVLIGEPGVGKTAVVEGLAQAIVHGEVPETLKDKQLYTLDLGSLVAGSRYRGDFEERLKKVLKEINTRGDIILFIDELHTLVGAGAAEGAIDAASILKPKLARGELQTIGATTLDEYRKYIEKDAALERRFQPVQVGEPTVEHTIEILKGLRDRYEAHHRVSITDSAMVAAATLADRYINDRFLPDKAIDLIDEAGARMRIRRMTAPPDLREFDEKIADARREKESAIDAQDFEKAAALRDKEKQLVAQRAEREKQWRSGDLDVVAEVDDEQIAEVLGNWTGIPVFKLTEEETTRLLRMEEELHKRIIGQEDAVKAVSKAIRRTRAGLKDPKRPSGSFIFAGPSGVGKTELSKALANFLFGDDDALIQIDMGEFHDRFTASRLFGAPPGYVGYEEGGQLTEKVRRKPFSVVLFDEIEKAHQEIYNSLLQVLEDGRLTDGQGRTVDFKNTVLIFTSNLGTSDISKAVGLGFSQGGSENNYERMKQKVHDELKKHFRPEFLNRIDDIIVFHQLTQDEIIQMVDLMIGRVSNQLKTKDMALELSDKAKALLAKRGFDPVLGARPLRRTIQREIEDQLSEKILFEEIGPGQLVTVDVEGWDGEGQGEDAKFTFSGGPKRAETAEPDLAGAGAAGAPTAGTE
Briefly: MST; Monolith NT.115; 0.1 uM ^H7-SUMOClpC1^FLAG (hexamer) with 0.1 uM His Lite OG488-Tris-NTA-Ni dye, partner titrated; fit to a Hill-form binding equation; apparent (Kapp). The settings on record: both partners purified.
For B1, the binding result was “binds”.
To B2 belongs “binds”; to B3, “binds”.
